Values joined by “and” are separate entries in the source; they are usually repeats but may differ in a detail not shown here. Identical values can stand only once. Ends that are not written are not given here. * marks the point of attachment. Palmitoyl = CCCCCCCCCCCCCCCC(=O)*
Tests used:
[1] = system: SERCA1a; details: cited from earlier work
From the text: Effect on the turnover is less clear as it seems to highly depend on the system used for functional characterization. […] This post-translational modification is also present in pig SLN and presumably in a few other mammals and birds, as judged from the amino-acid sequences. Among the other hundred seq ...

[2] = system: recombinant purified SERCA1a (recS1a); experiment: Limited proteolysis with proteinase K (SDS-PAGE); format: biochemical, rabbit (expressed in S. cerevisiae); details: Ca2.E1 (1 mM calcium) and E2.Tg (EGTA + thapsigargin); recS1a:pSLN 1:10 mole:mole; 0.3 mg/mL proteinase K, 5-30 min, 20 °C
Method: Yeast-expressed and purified SERCA1a (recS1a) was supplemented with SLN at a mole:mole ratio of 1:10 recS1a:SLN. In absence of SLN, recS1a was supplemented with 0.07 mg/mL C12E8, an amount that corresponds to the detergent brought with chemically synthesized SLN. After 30 min at 20 °C, samples were supplemented with either 1.1 mM EGTA (Ca^2+free ~ 1 mM), or 50 mM EGTA (Ca^2+free ~ 150 nM) and 0.01 mg/mL Tg. After an additional incubation for 10 min at 20 °C, proteolysis was achieved by addition of 0.3 mg/mL proteinase K. Proteolysis was stopped by addition of 1 mM PMSF and incubation on ice for 10 min. After proteolysis arrest, samples were diluted twice in a 4 M-urea containing denaturation buffer, boiled for 60 s, and about 0.75 µg protein were loaded on a 9% SDS-PAGE prepared in the presence of 1 mM Ca^2+[32]. After electrophoresis, gels were stained with Coomassie blue.

[3] = biological target: T1, recombinant SERCA1a (recS1a) (Oryctolagus cuniculus, UniProt P04191); experiment: Steady-state ATPase activity, enzyme-coupled assay; format: biochemical, rabbit (expressed in S. cerevisiae)
T1 construct: BAD (biotin acceptor domain) (C, cleaved yes); made in house; host or cells: Saccharomyces cerevisiae
T1 sequence (P04191 1-994 isoform P04191-2): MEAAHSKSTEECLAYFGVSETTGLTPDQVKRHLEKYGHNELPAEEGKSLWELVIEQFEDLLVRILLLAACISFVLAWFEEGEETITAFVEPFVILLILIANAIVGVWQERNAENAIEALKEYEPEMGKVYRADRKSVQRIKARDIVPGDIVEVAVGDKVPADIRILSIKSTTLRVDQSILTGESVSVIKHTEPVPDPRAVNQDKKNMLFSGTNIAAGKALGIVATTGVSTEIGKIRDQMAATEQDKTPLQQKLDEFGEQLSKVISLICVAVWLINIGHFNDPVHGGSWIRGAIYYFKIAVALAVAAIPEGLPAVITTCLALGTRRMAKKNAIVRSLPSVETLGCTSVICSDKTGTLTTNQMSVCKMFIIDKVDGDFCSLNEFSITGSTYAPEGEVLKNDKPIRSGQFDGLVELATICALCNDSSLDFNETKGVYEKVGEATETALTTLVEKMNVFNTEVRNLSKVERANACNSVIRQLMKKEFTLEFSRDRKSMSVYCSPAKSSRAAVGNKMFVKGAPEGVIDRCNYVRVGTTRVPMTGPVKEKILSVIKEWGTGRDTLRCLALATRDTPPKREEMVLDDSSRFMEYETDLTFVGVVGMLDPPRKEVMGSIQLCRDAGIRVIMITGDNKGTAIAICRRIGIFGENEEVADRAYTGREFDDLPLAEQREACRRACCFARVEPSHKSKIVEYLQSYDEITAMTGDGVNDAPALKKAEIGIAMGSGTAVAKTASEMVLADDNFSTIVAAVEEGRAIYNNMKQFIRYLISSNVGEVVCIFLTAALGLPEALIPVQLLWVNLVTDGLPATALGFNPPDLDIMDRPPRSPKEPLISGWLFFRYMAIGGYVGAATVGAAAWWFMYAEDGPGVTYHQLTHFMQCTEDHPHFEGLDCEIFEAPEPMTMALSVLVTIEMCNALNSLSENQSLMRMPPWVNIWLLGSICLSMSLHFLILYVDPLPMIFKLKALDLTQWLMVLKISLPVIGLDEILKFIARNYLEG
Method: resuspended in a large volume of pure water and lyophilized to evaporate most of the TFA. The rinsed powder was then suspended in presence of 10 mM HCl to exchange the anionic residual TFA that may interact with the positive charges of the peptide for chloride. This suspension was lyophilized again.
Three additional cycles of – dissolving in pure water / lyophilisation – will allow to eliminate traces of TFA and to get back to a pH compatible with functional tests. For final solubilisation of SLN in detergent, powder was then dissolved in 50% TFE and an amount of detergent to reach a 100:1 mole:mole detergent:SLN ratio. Here, we used C12E8 as it is fully compatible with functional characterization of SERCA1a 23. This suspension was then lyophilized again to evaporate TFE.
Sarcolipins (Palm-SLN or SLN) were finally resuspended at 0.8 mg/mL (about 200 µM) in a 10 mM potassium phosphate buffer pH 7.4, in the presence of 2.5 mg/mL C12E8.
Expression and Purification of recombinant SERCA1a (recS1a)
The yeast expression plasmid pYeDP60-SERCA1a-BAD (WT) and expression in Saccharomyces cerevisiae was described previously 30. Yeast membranes were solubilized by DDM for subsequent purification of recombinant Ca2+-ATPase by Streptavidin affinity chromatography 31. Purified recombinant SERCA1a was recovered in a buffer containing 50 mM MOPS-Tris pH7, 100 mM KCl, 5 mM MgCl2, 2.1 mM CaCl2, 40 % glycerol (v/v) and 0.5 mg/mL DDM, together with some thrombin remaining from the elution procedure. The protein concentration in the purified fraction was in the 0.05 to 0.15 mg/mL range depending on the batch. […]
Steady-state ATPase activity measurements
Measurements were performed using classical enzyme coupled assay. We measured the rate of NADH oxidation in the presence of 0.1 mg/mL lactate deshydrogenase, 0.05 mg/mL pyruvate kinase, 1 mM phosphoenolpyruvate, 0.25 mM NADH (protocol was adapted from 22) and in the additional presence of 2 mg/mL C12E8 to limit time-dependent inactivation of the purified SERCA1a 20,23.

[4] = biological target: T1, recombinant SERCA1a (recS1a); experiment: Calcium dependence of phosphoenzyme level; format: biochemical, rabbit (expressed in S. cerevisiae)
Method: Transient formation of the phosphoenzyme intermediate was measured after incubation with [γ^32P]ATP followed by acid quenching, and filtration. For most experiments, 50 µL of enzyme at 10 µg/mL in a buffer containing 50 mM Tes-Tris pH7.5, 1 mM KCl, 5 mM MgCl2, 20% glycerol (w/w) and 0.5 mg/mL DDM, supplemented or not with SLN, was stored on ice. Concentrations of EGTA and calcium are specified in figure legends in order to reach the appropriate [Ca^2+]free and therefore the desired starting state for the ATPase. For kinetics of phosphorylation, we initiate reaction by addition of 2 µM [γ^32P]ATP (5 mCi/µmole), and calcium at 100 µM when specified. Reaction was quenched by addition of 2 mL of cold quenching medium (500 mM TCA + 30 mM H3P0_4) under vigorous mixing, and immediately stored on ice for 20–30 min to improve precipitation, a period of time critical for retention of the precipitate on the filter in presence of detergent. This was followed by filtration on GS filters (Millipore, Saint Quentin-Fallavier, France) and careful rinsing of the filters with diluted quenching medium (50 mM TCA + 3 mM H3P0_4). The amount of radioactivity bound to the filter was estimated by liquid scintillation counting (Perkin Elmer TriCarb Counter). When starting from a calcium-deprived state (Fig. 4C,D), EGTA was added only one minute before starting phosphorylation to limit irreversible inactivation of the solubilized ATPase, although the presence of glycerol helps in protecting the enzyme from irreversible inactivation. For dephosphorylation kinetics, 1 mM “cold” Mg.ATP was added after a 30 s period of phosphorylation. For Ca^2+-dependency, we adjust the concentration of free calcium according to the Ca.EGTA constant as mentioned above, before triggering phosphorylation. […] Phosphorylations were done at 0 °C especially for inhibition by vanadate to prevent dissociation of vanadate and limit irreversible inactivation in absence of calcium.

## SLN: chemically synthesized non-palmitoylated rabbit sarcolipin; in cited literature results sarcolipin in general (MERSTRELCLNFTVVLITVILIWLLVRSYQY; UniProt P42532 1-31, looked up)
[1]; 0.35 µM in absence of SLN
  apparent affinity for calcium in presence of SLN: 0.51 µM
[1]; % of Vmax measured in absence of SLN, ref 13 and Supplementary Table 1
  Vmax in presence of SLN, increase reported by some authors: up to 140%

## pSLN: chemically synthesized S-palmitoylated rabbit sarcolipin, 31-residue single-spanning membrane peptide, palmitoylated on Cys9 (MERSTRELC(Palmitoyl)LNFTVVLITVILIWLLVRSYQY; UniProt P42532 1-31, looked up)
[2]
  effect on proteinase K proteolysis: drastically slowed
[3]; recS1a + Palm-SLN, recS1a alone 2.88 +/- 0.12
  maximal turnover: 2.74 +/- 0.04 µmol ATP/mg/min
[3]; recS1a in absence or presence of pSLN, enzyme-coupled assay
  affinity for calcium and maximum turn-over: no difference was observed
[3]; steady state, NADH-coupled assay, 2 mg/mL C12E8, three independent experiments, p=0.248
  Ca1/2 (ATPase activity), recS1a + pSLN: 0.13 +/- 0.06 µM
[4]; five independent experiments
  nH for calcium (phosphoenzyme level), recS1a + pSLN: 0.74 ± 0.03
[4]; phosphorylation 15 s, varying calcium, five independent experiments, 36 data points per fit, p = 0.29
  Ca1/2 (phosphoenzyme level), recS1a + pSLN: 0.58 ± 0.05 µM and 0.58 µM
[4]; recS1a + pSLN, Fig. 4E, recS1a alone 3.13 ± 0.11
  EPmax (calcium dependence): 3.19 ± 0.11 nmoles EP/mg ATPase

— PMC7810697, “Sarcolipin alters SERCA1a interdomain communication by impairing binding of both calcium and ATP” (Scientific Reports, 2021)
